Measured values as given in patent publication US20100286365A1 (AMYLIN PHARMACEUTICALS, published 2010).
Where no end group is shown, it is not given here. Side-chain parts run from the residue outwards. [ ]: non-standard residue; d: D form. lisinopril monoester = lisinopril with its ethyl ester not hydrolysed, amide-linked to γ-Abu; linker type G21 = not defined here; linker type C9 = not defined here; pGlu = O=C1CC[C@@H](C(=O)O)N1; AEEA = NCCOCCOCC(=O)O; GABA = NCCCC(=O)O

T1: GLP-1 receptor endogenously expressed by RIN m5f cells (UniProt P32301 22-463, limits assumed)
T1 construct: whole, on cells; Membrane fractions were used in the assays
T1 sequence (looked up): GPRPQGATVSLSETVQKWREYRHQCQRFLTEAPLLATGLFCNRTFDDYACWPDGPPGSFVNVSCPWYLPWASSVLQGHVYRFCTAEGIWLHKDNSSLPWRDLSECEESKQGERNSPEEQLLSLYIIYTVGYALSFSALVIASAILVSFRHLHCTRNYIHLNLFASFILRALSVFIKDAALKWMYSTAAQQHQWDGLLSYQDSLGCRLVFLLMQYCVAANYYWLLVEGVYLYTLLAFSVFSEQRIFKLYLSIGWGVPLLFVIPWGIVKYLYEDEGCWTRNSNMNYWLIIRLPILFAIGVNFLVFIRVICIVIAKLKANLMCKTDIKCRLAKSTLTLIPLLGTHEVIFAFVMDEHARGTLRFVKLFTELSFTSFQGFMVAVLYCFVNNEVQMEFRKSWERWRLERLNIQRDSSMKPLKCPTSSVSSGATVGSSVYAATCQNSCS

T2: GLP-1 receptor endogenously expressed by the thyroid c-cell carcinoma line 6-23 (UniProt P32301 22-463)
T2 sequence (looked up): T1 sequence (looked up)

T3: ACE from rabbit lung (rabbit, UniProt P12822 34-1310, limits assumed)
T3 sequence (looked up): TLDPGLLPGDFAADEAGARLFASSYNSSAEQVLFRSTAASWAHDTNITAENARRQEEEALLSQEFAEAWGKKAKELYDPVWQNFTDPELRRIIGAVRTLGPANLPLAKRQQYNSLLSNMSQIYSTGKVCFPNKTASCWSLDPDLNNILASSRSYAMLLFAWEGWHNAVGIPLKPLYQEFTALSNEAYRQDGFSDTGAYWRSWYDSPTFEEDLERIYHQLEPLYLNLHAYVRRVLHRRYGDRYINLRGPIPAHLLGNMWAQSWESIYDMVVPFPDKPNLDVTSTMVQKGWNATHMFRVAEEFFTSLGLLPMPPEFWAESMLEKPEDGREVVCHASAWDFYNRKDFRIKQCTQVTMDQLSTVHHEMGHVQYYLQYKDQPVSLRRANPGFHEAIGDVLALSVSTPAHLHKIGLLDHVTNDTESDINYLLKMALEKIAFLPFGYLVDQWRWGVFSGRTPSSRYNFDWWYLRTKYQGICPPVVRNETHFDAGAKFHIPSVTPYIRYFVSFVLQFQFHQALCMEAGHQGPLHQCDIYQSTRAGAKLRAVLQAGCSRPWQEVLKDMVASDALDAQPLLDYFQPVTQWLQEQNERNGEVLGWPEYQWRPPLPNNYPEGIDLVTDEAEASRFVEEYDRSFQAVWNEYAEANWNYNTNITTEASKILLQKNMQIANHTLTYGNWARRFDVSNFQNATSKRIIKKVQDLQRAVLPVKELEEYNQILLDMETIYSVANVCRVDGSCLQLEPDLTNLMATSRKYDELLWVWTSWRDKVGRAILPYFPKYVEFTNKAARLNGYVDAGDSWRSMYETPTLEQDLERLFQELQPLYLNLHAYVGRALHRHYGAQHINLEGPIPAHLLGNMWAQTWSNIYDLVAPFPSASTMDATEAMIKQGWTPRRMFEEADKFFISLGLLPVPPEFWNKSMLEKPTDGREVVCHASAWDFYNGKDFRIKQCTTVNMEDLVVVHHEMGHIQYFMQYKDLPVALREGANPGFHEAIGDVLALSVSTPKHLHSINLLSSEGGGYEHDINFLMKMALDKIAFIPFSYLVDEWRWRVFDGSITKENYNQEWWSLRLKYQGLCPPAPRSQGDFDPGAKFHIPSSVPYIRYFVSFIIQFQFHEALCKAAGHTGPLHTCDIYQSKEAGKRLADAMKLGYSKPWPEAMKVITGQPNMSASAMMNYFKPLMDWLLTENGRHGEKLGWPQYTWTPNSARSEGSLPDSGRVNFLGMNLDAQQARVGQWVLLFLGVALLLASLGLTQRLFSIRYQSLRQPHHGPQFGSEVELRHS

T4: human GIP receptor (human, UniProt P48546 22-466)
T4 construct: whole, on cells; Membrane fractions of HEK-GIPR cells were used; also called HEK-GIPR
T4 sequence (looked up): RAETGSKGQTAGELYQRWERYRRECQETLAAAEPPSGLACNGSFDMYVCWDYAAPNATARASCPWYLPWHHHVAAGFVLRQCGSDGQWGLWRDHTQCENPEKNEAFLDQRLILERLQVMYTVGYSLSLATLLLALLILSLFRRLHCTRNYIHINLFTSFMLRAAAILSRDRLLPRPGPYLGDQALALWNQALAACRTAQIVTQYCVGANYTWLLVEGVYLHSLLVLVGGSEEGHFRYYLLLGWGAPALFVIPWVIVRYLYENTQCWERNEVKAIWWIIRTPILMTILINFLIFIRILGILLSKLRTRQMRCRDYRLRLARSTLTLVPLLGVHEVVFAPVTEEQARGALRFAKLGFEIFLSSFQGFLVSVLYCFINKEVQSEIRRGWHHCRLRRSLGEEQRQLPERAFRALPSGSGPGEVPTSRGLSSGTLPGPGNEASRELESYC

B1: GLP-1(7-37)-GG-(S)-2,6-diamino-1-(thiazolidin-3-yl)hexan-1-one amide (peptide)
peptide: HAEGTFTSDVSSYLEGQAAKEFIAWLVKGRGGG
modifications: C-terminal Gly amide-linked to (S)-2,6-diamino-1-(thiazolidin-3-yl)hexan-1-one (Lys-thiazolidide, DPP-IV inhibitor motif)
notes: also called Cmpd 4844; 4844
B2: GLP-1(7-37)-GG-(S)-2,6-diamino-1-(thiazolidin-2-cyano-3-yl)hexan-1-one amide (peptide)
peptide: B1 peptide
modifications: C-terminal Gly amide-linked to (S)-2,6-diamino-1-(thiazolidin-2-cyano-3-yl)hexan-1-one (Lys-2-cyanothiazolidide, DPP-IV inhibitor motif)
notes: also called Cmpd 4845; 4845
B3: GLP-1(7-37)-γ-Abu-N^ε2Lys-(Pyr)-WAP-OH (peptide)
peptide 1: HAEGTFTSDVSSYLEGQAAKEFIAWLVKGRG
peptide 2: [pGlu]KWAP-OH
modifications: not fully specified (C-terminus); also: linker at chain B 2 to a chain's C-terminus via γ-Abu
B4: [^2D-Ala^14Leu] GIP(1-30)-βAla-βAla-ε-NH-Lys(α-NH-Pyroglutamoyl)-Trp-Ala-Pro (peptide)
peptide 1: Y[dA]EGTFISDYSIALDKIHQQDFVNWLLAQK
peptide 2: [pGlu]KWAP-OH
modifications: not fully specified (C-terminus); printed as [^2D-Ala^14Leu] GIP(1-30)-βAla-βAla-ε-NH-Lys(α-NH-Pyroglutamoyl)-Trp-Ala-Pro; also: linker at chain B 2 to a chain's C-terminus via βAla-βAla
notes: also called [^2D-Ala,^14Leu]; GIP-(1-30)-β-Ala-β-Ala-Lys(α-NH-Pyroglutamoyl)-Trp-Ala-Pro-COOH
B5: [^2D-Ala] GIP(1-30)-Ado-Ado-Aun-βAla-βAla-ε-NH-Lys(α-NH-Pyroglutamoyl)-Trp-Ala-Pro (peptide)
peptide 1: Y[dA]EGTFISDYSIAMDKIHQQDFVNWLLAQK
peptide 2: [pGlu]KWAP
modifications: not fully specified (C-terminus); printed as [^2D-Ala] GIP(1-30)-Ado-Ado-Aun-βAla-βAla-ε-NH-Lys(α-NH-Pyroglutamoyl)-Trp-Ala-Pro; also: linker at chain B 2 to a chain's C-terminus via Ado-Ado-Aun-βAla-βAla

Biological target: Recombinant DPP-IV
Assay: cell-based or functional assay

In the case of IPI [Diprotin A (Ile-Pro-Ile)], the “DPP-IV inhibition IC50” value is reported as 5100 nM.

Biological target: T1, GLP-1 receptor endogenously expressed …
Assay: displacement of [125I]GLP-1 tracer from RIN m5f cell membranes (endogenous GLP-1 receptor), filter binding
Experimental: Membrane fractions were prepared from confluent cultures of RIN m5f cells. […] The reaction mixtures were constantly mixed at 23° C. for 2 hours. The reaction mixtures were filtered through glass filter pads presoaked with 0.3% PEI solution and rinsed with ice-cold phosphate buffered saline. Counts bound to the filer pads were determined using a scintillation counter and binding affinities were calculated using GraphPad PRISM® software (GraphPad Software, Inc., San Diego, Calif.).

B1 and B2 are within 1.5-fold of each other in IC50: 0.087 nM for the first, 0.1 nM for the second.

Biological target: T2, GLP-1 receptor endogenously expressed …
Assay: cell-based or functional assay

First: HAEGTFTSDVTQQLDEKAAKEFIDWLINGGPSKEIIS [Compound 4202]
Second: HAEGTFTSDVTQQLDEKAAKEFIDWLINGGPSKEIIS-{linker type C9-lisinopril} (reading uncertain) [Compound 5714]
The “GLP Cyclase EC50” value of the first is 98-fold lower: 0.03 nM for the first, 2.93 nM for the second.

In the case of HAEGTFTSDVTQQLDEKAAKEFIDWLINGGPSKEIIS-{linker type G21-lisinopril} (reading uncertain) [Compound 5713], the “GLP Cyclase EC50” value is reported as 2.89 nM.

Biological target: T3, ACE from rabbit lung
Assay: cell-based or functional assay

Going from HAEGTFTSDVSSYLEGQAAKEFIAWLVKGRG (lisinopril joined at the C-terminus through linker type C9 (FIG. 2)) [Compound 5547] to HAEGTFTSDVSSYLEGQAAKEFIAWLVKGRG (lisinopril joined at the C-terminus through linker type G21 (FIG. 2)) [Compound 5607], the “ACE inhibition IC50” value falls from 180 nM to 100 nM (1.8-fold).

Going from HAEGTFTSDVTQQLDEKAAKEFIDWLINGGPSKEIIS-{linker type C9-lisinopril} (reading uncertain) [Compound 5714] to HAEGTFTSDVTQQLDEKAAKEFIDWLINGGPSKEIIS-{linker type G21-lisinopril} (reading uncertain) [Compound 5713], the “ACE inhibition IC50” value rises from 350 nM to 700 nM (2-fold).

Biological target: T3, ACE from rabbit lung
Assay: cell-based or functional assay
Remark: another data set of the same source

Going from HAEGTFTSDVSSYLEGQAAKEFIAWLVKGRG (C-terminus extended by γ-Abu-β-Ala and amide-linked (CONH) to lisinopril diacid) [GLP-1(7-37)-γ-Abu-β-Ala-CONH-lisinopril diacid] to HAEGTFTSDVSSYLEGQAAKEFIAWLVKGRG-{GABA-lisinopril monoester} [GLP-1(7-37)-γ-Abu-CONH-lisinopril monoester], the “ACE inhibition IC50” value rises from 180 nM to over 100000 nM.

In the case of B3, the “ACE inhibition IC50” value is reported as over 10000 nM.

Biological target: T1, GLP-1 receptor endogenously expressed …
Assay: cell-based or functional assay

First: B1
Second: B2
The “GLP Cyclase EC50” value of the first is 3.1-fold lower: 0.13 nM for the first, 0.4 nM for the second.

Biological target: Recombinant DPP-IV
Assay: cell-based or functional assay
Remark: another data set of the same source

B1 and B2 are within 1.5-fold of each other in “DPP-IV IC50” value: 91 nM for the first, 76 nM for the second.

With HAEGTFTSDVSSYLEGQAAKEFIAWLVKGR-NH2 [GLP-1] the “DPP-IV IC50” value was over 3300 nM.

Biological target: T4, human GIP receptor
Assay: displacement of 30 pM 125I-GIP from HEK-GIPR membranes by 10 nM conjugate, relative to human GIP (100%)
Experimental: Membrane fractions were prepared from confluent cell cultures of HEK-GIPR, snap frozen, and stored at −80° C. until use. […] Reactions were allowed to proceed to equilibrium for 90 minutes at room temperature with constant shaking. The reaction mixtures were then filtered through 96-well glass fiber filter plates separating bound and unbound fractions of radioligand.

Going from YAEGTFISDYSIAMDKIHQQDFVNWLLAQK (C-terminus extended by Ado-Ado-Lys-N-ε-(2-(S)-cyano pyrrolidyl)) [GIP(1-30)-Ado-Ado-Lys-N-ε-(2-(S)-cyano pyrrolidyl)] to YAEGTFISDYSIAMDKIHQQDFVNWLLAQK([AEEA-γ‑L‑Glu‑2‑(S)‑cyano pyrrolidyl]) [Lys^30 N-ε-(Ado-(γ-L-Glu-2-(S)-cyano pyrrolidyl)) GIP(1-30)], the “GIP RBA % inhibition at 10 nM” value falls from 97% to 33%.

Compared with YAEGTFISDYSIALDKIHQQDFVNWLLAQK-{AEEA-Lys‑N‑ε‑(2-(S)-cyano pyrrolidyl)} [[^14Leu] GIP(1-30)-Ado-Lys-N-ε-(2-(S)-cyano pyrrolidyl)], YAEGTFISDYSIAMDKIHQQDFVNWLLAQK (C-terminus extended by Ado-Lys-N-ε-(2-(S)-cyano pyrrolidyl)) [GIP(1-30)-Ado-Lys-N-ε-(2-(S)-cyano pyrrolidyl)] is lower in “GIP RBA % inhibition at 10 nM” value: 100% for the first, 99% for the second.

Going from YAEGTFISDYSIAMDKIHQQDFVNWLLAQK (not fully specified (N-terminus)) [N-(γ-L-Glu-2-(S)-cyano pyrrolidyl)-Ado-Ado) GIP(1-30)] to B4, the “GIP RBA % inhibition at 10 nM” value rises from 32% to 66%.

B5 was tested, and the “GIP RBA % inhibition at 10 nM” value was 70%.
